Laboratory results: patent US20200347144A1 (SHANGHAI HYAMAB BIOTECH, published 2020)

T1: mouse 4-1BB protein (extracellular domain) (mouse, UniProt P20334 24-187)
T1 construct: extracellular domain; also called mouse 4-1BB-his; mouse 4-1BB-hFc protein
T1 sequence (looked up): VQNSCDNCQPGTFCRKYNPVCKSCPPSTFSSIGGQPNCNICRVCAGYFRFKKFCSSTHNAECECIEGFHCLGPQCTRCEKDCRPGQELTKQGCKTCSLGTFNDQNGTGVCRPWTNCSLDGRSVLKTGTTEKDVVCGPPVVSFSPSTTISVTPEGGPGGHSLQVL


How the values were obtained:
monkey 4-1BB-his protein [1] = target: T2, monkey 4-1BB-his protein (monkey); assay: ELISA, coated monkey 4-1BB-his; Ab 2 ug/ml
T2 construct: extracellular domain; Bought protein; also called extracellular domain of monkey-derived 4-1BB protein
Experimental: (§1) The purified immunogen A (4-1BB-hFc), monkey 4-1BB-his, and mouse 4-1BB-his obtained in Example 1 [for the preparation method, see step 1 of Example 1, preparation of immunogen A], of which the extracellular domain of monkey-derived 4-1BB protein (purchased from ACRO biosystems), the extracellular domain of mouse 4-1BB protein (purchased from sino biological) or other immune detection point proteins respectively were diluted with PBS to a final concentration of 1.0 μg/mL, then added with […] per well to 96-well ELISA plate. It was sealed with plastic film and incubated at 4° C. overnight. The next day, the plate was washed twice with the plate-washing solution [PBS containing 0.01% (v/v) Tween20] and blocking solution [PBS containing 0.01% (v/v) Tween 20 and 1% (v/v) BSA] was added and blocked at room temperature for 2 hours. The blocking solution was discarded and 100 μl of the purified 4-1BB antibody obtained in Example 2 was added per well. After incubated at 37° C. for 2 hours, the plate was washed 3 times with a plate-washing solution [PBS containing 0.01% (v/v) Tween20]. A secondary antibody (purchased from Sigma) labeled with HRP (horseradish peroxidase) was added, and after incubated at 37° C. for 2 hours, the plate was washed 3 times with a plate-washing solution [PBS containing 0.01% (v/v) Tween20]. 100 μl of TMB substrate was added per well. After incubated for 30 minutes at room temperature, 100 μl of stop buffer (1.0N HCl) was added per well. The A450 nm values were read using an ELISA plate reader (SpectraMax 384plus, Molecular Device).

monkey 4-1BB-his protein [2] = target: T2, monkey 4-1BB-his protein; assay: ELISA, coated monkey 4-1BB-his; Ab 0.08 ug/ml
Experimental: as §1

monkey 4-1BB-his protein [3] = target: T2, monkey 4-1BB-his protein; assay: ELISA, coated monkey 4-1BB-his; Ab 0.0006 ug/ml
Experimental: as §1

monkey 4-1BB-his protein [4] = target: T2, monkey 4-1BB-his protein; assay: ELISA, coated monkey 4-1BB-his; Ab 0.016 ug/ml
Experimental: as §1

monkey 4-1BB-his protein [5] = target: T2, monkey 4-1BB-his protein; assay: ELISA, coated monkey 4-1BB-his; Ab 0.4 ug/ml
Experimental: as §1

[6] = target: T1, mouse 4-1BB protein (extracellular …); assay: ELISA, coated mouse 4-1BB; Ab 0.0032 ug/ml
Experimental: as §1

[7] = target: T1, mouse 4-1BB protein (extracellular …); assay: ELISA, coated mouse 4-1BB; Ab 0.0001 ug/ml
Experimental: as §1

[8] = target: T1, mouse 4-1BB protein (extracellular …); assay: ELISA, coated mouse 4-1BB; Ab 0.4 ug/ml
Experimental: as §1

[9] = target: T1, mouse 4-1BB protein (extracellular …); assay: ELISA, coated mouse 4-1BB; Ab 10 ug/ml
Experimental: as §1

[10] = target: T1, mouse 4-1BB protein (extracellular …); assay: ELISA: mouse 4-1BB protein coated at 1.0 µg/mL (target by Table 10; the legend paragraph 119 says monkey 4-1BB-hFc), antibody titrated, HRP secondary antibody, OD450
Experimental: as §1

[11] = target: T1, mouse 4-1BB protein (extracellular …); assay: ELISA, coated mouse 4-1BB; Ab 0.08 ug/ml
Experimental: as §1

[12] = target: T1, mouse 4-1BB protein (extracellular …); assay: ELISA, coated mouse 4-1BB; Ab 0.0006 ug/ml
Experimental: as §1

[13] = target: T1, mouse 4-1BB protein (extracellular …); assay: ELISA, coated mouse 4-1BB; Ab 2 ug/ml
Experimental: as §1

[14] = target: T3, monkey 4-1BB on CHOK1 cells (monkey); assay: FACS on CHOK1-c4-1BB cells, Alexa 488 secondary antibody, average fluorescence intensity
T3 construct: whole, on cells; also called CHOK1-c4-1BB
Text: The pIRES plasmid carrying the full-length gene of monkey-derived […] (the preparation method is the same as the preparation method of the pCpC vector carrying the human-derived IgG Fc fragment (hFc) in “Preparation of immunogen A” of the step (1) in Example 1, in which the database accession number of the amino acid sequence of the extracellular region of monkey 4-1BB protein (Phe19-Thr239) is G7PSE7) was transfected into CHOK1 cell line to obtain CHOK1 stable transfected cell line containing monkey 4-1BB (herein referred to as CHOK1-c4-1BB stable cell line). The CHOK1-h4-1BB stable cell line and the CHOK1-c4-1BB stable cell line were expanded and cultivated to 90% confluence in T-75 cell culture flasks. The medium was exhausted, and washed twice with HBSS buffer (Hanks Balanced Salt Solution, purchased from Invitrogen), and then the cells were treated and collected with enzyme-free cell dissociation solution (Versene solution, purchased from Life Technology). The cells were washed twice with HBSS buffer, and after cell counting, the cells were diluted with HBSS buffer to 2×10⁶ cells per ml, and 1% goat serum blocking solution was added, the percentage being the mass percentage. It was incubated on ice for 30 minutes, and then washed twice with HBSS buffer by centrifugation. The collected cells were suspended in FACS buffer (HBSS containing 1% BSA, the percentage was the mass percentage) to 2×10⁶ cells/mL, and 100 μl per well was added to a 96-well FACS reaction plate. The purified 4-1BB antibody test sample obtained in Example 2 was added, 100 microliters per well and incubated on ice for 2 hours. […] It was washed three times with FACS buffer by centrifugation, and 100 μl of fixative [4% (v/v) paraformaldehyde] per well was added to suspend cells, and washed twice with FACS buffer after 10 minutes by centrifugation. The cells were suspended with 100 microliters of FACS buffer, and the results were detected and analyzed with FACS (FACS Calibur, purchased from BD).

Row | Binder | OD450 nm (monkey 4-1BB-his protein [1]) [OD450 nm] | OD450 nm (monkey 4-1BB-his protein [2]) [OD450 nm] | OD450 nm (monkey 4-1BB-his protein [3]) [OD450 nm] | OD450 nm (monkey 4-1BB-his protein [4]) [OD450 nm] | OD450 nm (monkey 4-1BB-his protein [5]) [OD450 nm] | OD450 nm [6] [OD450 nm] | OD450 nm [7] [OD450 nm] | OD450 nm [8] [OD450 nm] | OD450 nm [9] [OD450 nm] | binding result [10] | OD450 nm [11] [OD450 nm] | OD450 nm [12] [OD450 nm] | OD450 nm [13] [OD450 nm] | EC50 (read off the curve) [14] [µg/mL]
1 | 119B6G5 (antibody, V domains shown) VH: EVQLLESGGGLVQPGGSLRLSCAASGFTFSNYAMSWVRQGPGKGLEWVSTIIGSGDSTYYTDSVKGRFTISRDNSKNTLFLQMNSLRAEDTAVYYCARDKSGWYYFDYWGQGTLVTVSS VL: DIQMTQSPSTLSASVGDRVTITCRASQSISNWLAWYQQKPGKAPKLLIYKASSLESGVPSRFSGSGSGTEFTLTISSLQPDDFATYYCQQYNDYFPITFGQGTRLEIK | 2.46 | 2.15 | 0.11 | 0.77 | 2.54 | – | – | – | – | – | – | – | – | –
2 | 258F5A8 (antibody, V domains shown) VH: QVQLVESGGGVVQPGRSLRLSCAASGFTFSSYGMHWVRQAPGKGLEWVAVIWYDGSNKYYADSVKGRFNISRDNSKNTLYLQMNSLRAEDTAVYYCARGPYLYSSGWYDYYYYGMDVWGQGTTVTVSS VL: not shown | 1.78 | 0.55 | 0.07 | 0.13 | 1.32 | – | – | – | – | – | – | – | – | –
3 | 170D7F2 (antibody, V domains shown) VH: QVQLVQSGAEVKKPGASVKVSCKASGYTFTSYDINWVRQATGQGLEWMGWMNPNSGNTGYAQKFQGRVTMTRNTSISTAYMELSSLRSEDTAVYYCARETGPFDYWGQGTLVTVSS VL: DIQMTQSPSSLSASVGDRVTITCRASQRINNYLNWYQQKPGKAPKLLIYGASSLQSGVPSRFSGSGSGTDFTLTISSLQPEDFATYYCQQSYSTPFTFGPGTKVDIK | – | – | – | – | – | 0.14 | 0.05 | 0.12 | 0.27 | no binding (tested: 10 µg/ml) | 0.1 | 0.05 | 0.11 | –
4 | 57B3D10 (antibody, V domains shown, also called 4-1BB fully human antibody 57B3D10) VH: QVQLQESGPGLVKPSETLSLTCTVSGGSISSYYWSWIRQPPGKGLEWIGYIYYSGSTNYNPSLKSRVTISVDTSKSQFSLKLTSVTAADTAVYYCAKDSDYYGSGSYSYWYFDLWGRGTLVTVSS VL: EIVMTQSPATLSVSPGERATLSCRASQSVSSNLAWYQQKPGQAPRLLIYGASTRAPGIPARFSGSGSGTEFTLTISSLQSEDFAVYYCQQYNNWPLTFGGGTKVEIK | 2.47 | 2.03 | 0.1 | 0.81 | 2.44 | 0.2 | 0.05 | 0.28 | 0.24 | no binding (tested: 10 µg/ml) | 0.14 | 0.05 | 0.1 | ~0.1
5 | 118F3A2 (antibody, V domains shown) VH: QVQLQQWGAGLLKPSETLSLTCGVYGGSFSTNYWSWIRQSPGKGLEWIGEINHSGNTEYNPSLKSRLTISIDTSKNQFSLKLTSVTAADTAVYYCARMGYHSPSFDFWGQGVLVTVSS VL: KIVMTQSPATLSVSPGERATLPCRVSQGIGSNLAWYQQKPGQAPRLLIYGASTRATGVPARFSGSGSGSEFTLTISSLQSEDLALYYCQQYNNWPLTFGGGTKVEIK | – | – | – | – | – | 0.11 | 0.05 | 0.06 | 0.31 | no binding (tested: 10 µg/ml) | 0.12 | 0.05 | 0.12 | –
6 | 172E3E3 (antibody, V domains shown) VH: QVQLQESGPGLVKPSGTLSLTCAVSGGSISSSNWWSWVRQPPGKGLEWIGEIYHSGSTNYNPSLKSRVTISVDKSKNQLSLNLSSVTAADTAVYYCARQGGVAGTLYWYFDLWGRGTLVTVSS VL: DIVMTQSPLSLPVTPGEPASISCRSSQGLLHSNGYNYLDWYLQKPGQSPQLLIYLGSNRASGVPDRFIGSGSGTDFTLKIRRVEAEDVGVYYCMQVLQTPWTFGQGTKVEIK | – | – | – | – | – | 0.05 | 0.05 | 0.06 | 0.3 | no binding (tested: 10 µg/ml) | 0.05 | 0.05 | 0.12 | –
7 | 23G3B8 (antibody, V domains shown) VH: QVQLQESGPGLVKPSETLSLTCAVSAYSISSGYYWGWIRQPPGKGLEWIGSIFHSGSNYYNPSLKSRVTISVDPSKNQFSLKLSSVTVADTAVYYCARESSGYNCFDYWGQGTLVTVSS VL: not shown | – | – | – | – | – | – | – | – | – | – | – | – | – | ~0.2

More lines, now with the values ahead:

Row | OD450 nm (monkey 4-1BB-his protein [1]) [OD450 nm] | OD450 nm (monkey 4-1BB-his protein [2]) [OD450 nm] | OD450 nm (monkey 4-1BB-his protein [3]) [OD450 nm] | OD450 nm (monkey 4-1BB-his protein [4]) [OD450 nm] | OD450 nm (monkey 4-1BB-his protein [5]) [OD450 nm] | OD450 nm [6] [OD450 nm] | OD450 nm [7] [OD450 nm] | OD450 nm [8] [OD450 nm] | OD450 nm [9] [OD450 nm] | binding result [10] | OD450 nm [11] [OD450 nm] | OD450 nm [12] [OD450 nm] | OD450 nm [13] [OD450 nm] | EC50 (read off the curve) [14] [µg/mL] | Binder
8 | 1.51 | 0.46 | 0.07 | 0.12 | 1.18 | – | – | – | – | – | – | – | – | – | 259G10E11 (antibody, V domains shown) VH: QVQLVESGGGVVQPGRSLRLSCAASGFTFSSYGMHWVRQAPGKGLEWVAVIWYDGSNKYYADSVKGRFTISRDNSKNTLYLQMNSLRAEDTAVYYCARGPYLYSSGWYDYYYYGMDVWGQGTTVTVSS VL: not shown
9 | – | – | – | – | – | – | – | – | – | – | – | – | – | ~0.4 | 182A5B3 (antibody, V domains shown) VH: QVQLVQSGAEVKKPGASVKVSCKASGYTFTSYDINWVRQATGQGLEWMGWMNPNSGNTGYVQKFQGRVTMTRNTSISTAYMELSSLRSEDTAVYYCARETGPFDYWGQGTLVTVSS VL: not shown
10 | – | – | – | – | – | – | – | – | – | – | – | – | – | ~0.2 | 289B6G6 (antibody, V domains shown) VH: QVQLQESGPGLVRPSETLSLTCAVSGYSISSGYYWGWIRQPPGKGLEWIGSIFHSGNTYYNPSLKSRVIVSGDTSKNQFSLKLSSVTAADTAVYYCTRESSGFNVFDIWGQGTMVTVSS VL: not shown
11 | 0.39 | 0.08 | 0.07 | 0.07 | 0.14 | – | – | – | – | – | – | – | – | – | 263A11E3 (antibody, V domains shown) VH: QVQLQESGPGLVKPSETLSLTCAVSGYSISSGYYWGWIRQPPGKGLEWIGSIYHSGSTSYNPSLRSRVTISVDTSKNQFSLKLSSVTAADTAVYYCARDAGGFDYWGQGTLVTVSS VL: not shown
